B1: BBSome complex member BBS5 (Homo sapiens), Q8N3I7 (parent)
chain: MSVLDALWEDRDVRFDLSAQQMKTRPGEVLIDCLDSIEDTKGNNGDRGRLLVTNLRILWHSLALSRVNVSVGYNCILNITTRTANSKLRGQTEALYILTKCNSTRFEFIFTNLVPGSPRLFTSVMAVHRAYETSKMYRDFKLRSALIQNKQLRLLPQEHVYDKINGVWNLSSDQGNLGTFFITNVRIVWHANMNDSFNVSIPYLQIRSIKIRDSKFGLALVIESSQQSGGYVLGFKIDPVEKLQESVKEINSLHKVYSASPIFGVDYEMEEKPQPLEALTVEQIQDDVEIDSDGHTDAFVAYFADGNKQQDREPVFSEELGLAIEKLKDGFTLQGLWEVMS
partner: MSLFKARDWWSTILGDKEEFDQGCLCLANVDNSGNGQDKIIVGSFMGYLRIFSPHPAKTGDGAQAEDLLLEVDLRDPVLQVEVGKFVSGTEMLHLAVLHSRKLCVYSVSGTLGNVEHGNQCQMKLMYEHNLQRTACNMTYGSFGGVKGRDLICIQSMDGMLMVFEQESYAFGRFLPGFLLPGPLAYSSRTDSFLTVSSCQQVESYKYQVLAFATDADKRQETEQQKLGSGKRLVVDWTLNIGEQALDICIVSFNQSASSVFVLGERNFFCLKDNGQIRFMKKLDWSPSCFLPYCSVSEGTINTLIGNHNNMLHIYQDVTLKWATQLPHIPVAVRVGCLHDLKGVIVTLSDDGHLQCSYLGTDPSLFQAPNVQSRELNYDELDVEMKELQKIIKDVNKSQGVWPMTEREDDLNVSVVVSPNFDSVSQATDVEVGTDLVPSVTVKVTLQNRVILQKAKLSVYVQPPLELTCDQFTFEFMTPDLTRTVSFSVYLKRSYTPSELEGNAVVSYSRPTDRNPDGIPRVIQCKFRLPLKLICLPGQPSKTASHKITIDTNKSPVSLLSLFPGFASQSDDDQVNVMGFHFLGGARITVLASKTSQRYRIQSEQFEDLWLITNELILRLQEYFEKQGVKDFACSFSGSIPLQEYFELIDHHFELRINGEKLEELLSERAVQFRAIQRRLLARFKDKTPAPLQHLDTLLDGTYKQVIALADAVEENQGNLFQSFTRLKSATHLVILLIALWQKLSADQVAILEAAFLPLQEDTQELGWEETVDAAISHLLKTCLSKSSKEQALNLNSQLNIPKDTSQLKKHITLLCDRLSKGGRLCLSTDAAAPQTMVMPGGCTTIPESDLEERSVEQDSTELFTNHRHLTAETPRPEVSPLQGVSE

Variants of: B1
Conditions: with pthb1_human BBS9, Q3SYG4

Variant	effect of a mutation on the interaction
MSVLDALWEDRDVRFDLSAQQMKTRPGEVLIDCLDSIEDTKGNNGDRGRLLVTNLRILWHSLALSRVNVSVGYNCILNITTRTANSKLRGQTEALYILTKCNSTRFEFIFTNLVPGSPRLFTSVMAVHRAYETSKMYRDFKLRSALIQNKQLRLLPQEHVYDKINGVWNLSSDQGNLGTFFITNVRIVWHANMNDSFNVSIPYLQIRSIKIRDSKFGLALVIESSQQSGGYVLGFKIDPVEKLQESVKEINSLHKVYSAKPIFGVDYEMEEKPQPLEALTVEQIQDDVEIDSDGHTDAFVAYFADGNKQQDREPVFSEELGLAIEKLKDGFTLQGLWEVMS [S260K]	with no effect
MSVLDALWEDRDVRFDLSAQQMKTRPGEVLIDCLDSIEDTKGNNGDRGRLLVTNLRILWHSLALSRVNVSVGYNCILNITTRTANSKLRGQTEALYILTKCNSTRFEFIFTNLVPGSPRLFTSVMAVHRAYETSKMYRDFKLRSALIQNKQLRLLPQEHVYDKINGVWNLSSDQGNLGTFFITNVRIVWHANMNDSFNVSIPYLQIRSIKIRDSKFGLALVIESSQQSGGYVLGFKIDPVEKLQESVKEINSLHKVYSAAPIFGVDYEMEEKPQPLEALTVEQIQDDVEIDSDGHTDAFVAYFADGNKQQDREPVFSEELGLAIEKLKDGFTLQGLWEVMS [S260A]	with no effect
MSVLDALWEDRDVRFDLSAQQMKTRPGEVLIDCLDSIEDTKGNNGDRGRLLVTNLRILWHSLALSRVNVSVGYNCILNITTRTANSKLRGQTEALYILTKCNSTRFEFIFTNLVPGSPRLFTSVMAVHRAYETSKMYRDFKLRSALIQNKQLRLLPQEHVYDKINGVWNLSSDQGNLGTFFITNVRIVWHANMNDSFNVSIPYLQIRSIKIRDSKFGLALVIESSQQSGGYVLGFKIDPVEKLQESVKEINSLHKVYSASPIAGVDYEMEEKPQPLEALTVEQIQDDVEIDSDGHTDAFVAYFADGNKQQDREPVFSEELGLAIEKLKDGFTLQGLWEVMS [F263A]	with no effect
MSVLDALWEDRDVRFDLSAQQMKTRPGEVLIDCLDSIEDTKGNNGDRGRLLVTNLRILWHSLALSRVNVSVGYNCILNITTRTANSKLRGQTEALYILTKCNSTRFEFIFTNLVPGSPRLFTSVMAVHRAYETSKMYRDFKLRSALIQNKQLRLLPQEHVYDKINGVWNLSSDQGNLGTFFITNVRIVWHANMNDSFNVSIPYLQIRSIKIRDSKFGLALVIESSQQSGGYVLGFKIDPVEKLQESVKEINSLHKVYEASPIFGVDYEMEEKPQPLEALTVEQIQDDVEIDSDGHTDAFVAYFADGNKQQDREPVFSEELGLAIEKLKDGFTLQGLWEVMS [S258E]	with no effect
MSVLDALWEDRDVRFDLSAQQMKTRPGEVLIDCLDSIEDTKGNNGDRGRLLVTNLRILWHSLALSRVNVSVGYNCILNITTRTANSKLRGQTEALYILTKCNSTRFEFIFTNLVPGSPRLFTSVMAVHRAYETSKMYRDFKLRSALIQNKQLRLLPQEHVYDKINGVWNLSSDQGNLGTFFITNVRIVWHANMNDSFNVSIPYLQIRSIKIRDSKFGLALVIESSQQSGGYVLGFKIDPVEKLQESVKEINSLHKVYKASPIFGVDYEMEEKPQPLEALTVEQIQDDVEIDSDGHTDAFVAYFADGNKQQDREPVFSEELGLAIEKLKDGFTLQGLWEVMS [S258K]	with no effect
MSVLDALWEDRDVRFDLSAQQMKTRPGEVLIDCLDSIEDTKGNNGDRGRLLVTNLRILWHSLALSRVNVSVGYNCILNITTRTANSKLRGQTEALYILTKCNSTRFEFIFTNLVPGSPRLFTSVMAVHRAYETSKMYRDFKLRSALIQNKQLRLLPQEHVYDKINGVWNLSSDQGNLGTFFITNVRIVWHANMNDSFNVSIPYLQIRSIKIRDSKFGLALVIESSQQSGGYVLGFKIDPVEKLQESVKEINSLHKVYAASPIFGVDYEMEEKPQPLEALTVEQIQDDVEIDSDGHTDAFVAYFADGNKQQDREPVFSEELGLAIEKLKDGFTLQGLWEVMS [S258A]	with no effect
MSVLDALWEDRDVRFDLSAQQMKTRPGEVLIDCLDSIEDTKGNNGDRGRLLVTNLRILWHSLALSRVNVSVGYNCILNITTRTANSKLRGQTEALYILTKCNSTRFEFIFTNLVPGSPRLFTSVMAVHRAYETSKMYRDFKLRSALIQNKQLRLLPQEHVYDKINGVWNLSSDQGNLGTFFITNVRIVWHANMNDSFNVSIPYLQIRSIKIRDSKFGLALVIESSQQSGGYVLGFKIDPVEKLQESVKEINSLHKVYSASPKFGVDYEMEEKPQPLEALTVEQIQDDVEIDSDGHTDAFVAYFADGNKQQDREPVFSEELGLAIEKLKDGFTLQGLWEVMS [I262K]	with no effect
MSVLDALWEDRDVRFDLSAQQMKTRPGEVLIDCLDSIEDTKGNNGDRGRLLVTNLRILWHSLALSRVNVSVGYNCILNITTRTANSKLRGQTEALYILTKCNSTRFEFIFTNLVPGSPRLFTSVMAVHRAYETSKMYRDFKLRSALIQNKQLRLLPQEHVYDKINGVWNLSSDQGNLGTFFITNVRIVWHANMNDSFNVSIPYLQIRSIKIRDSKFGLALVIESSQQSGGYVLGFKIDPVEKLQESVKEINSLHKVYSASPEFGVDYEMEEKPQPLEALTVEQIQDDVEIDSDGHTDAFVAYFADGNKQQDREPVFSEELGLAIEKLKDGFTLQGLWEVMS [I262E]	with no effect
MSVLDALWEDRDVRFDLSAQQMKTRPGEVLIDCLDSIEDTKGNNGDRGRLLVTNLRILWHSLALSRVNVSVGYNCILNITTRTANSKLRGQTEALYILTKCNSTRFEFIFTNLVPGSPRLFTSVMAVHRAYETSKMYRDFKLRSALIQNKQLRLLPQEHVYDKINGVWNLSSDQGNLGTFFITNVRIVWHANMNDSFNVSIPYLQIRSIKIRDSKFGLALVIESSQQSGGYVLGFKIDPVEKLQESVKEINSLHKVYSASPAFGVDYEMEEKPQPLEALTVEQIQDDVEIDSDGHTDAFVAYFADGNKQQDREPVFSEELGLAIEKLKDGFTLQGLWEVMS [I262A]	with no effect

Reference: IntAct's records for PubMed 29039417
